Here are results for 1 protein from PMC5793882 (Cell, 2018).

This data set concerns the molecule itself. The data set can be described thus: negative-stain electron microscopy.

B1: Drosophila Arc1 protein (natural protein, UniProt Q7K1U0 1-254, looked up)
chain: MAQLTQMTNEQLRELIEAVRAAAVGAAGSAAAAGGADASRGKGNFSACTHSFGGTRDHDVVEEFIGNIETYKDVEGISDENALKGISLLFYGMASTWWQGVRKEATTWKEAIALIREHFSPTKPAYQIYMEFFQNKQDDHDPIDTFVIQKRALLAQLPSGRHDEETELDLLFGLLNIKYRKHISRHSVHTFKDLLEQGRIIEHNNQEDEEQLATAKNTRGSKRTTRCTYCSFRGHTFDNCRKRQKDRQEEQHEE
Consider B1, for which the binding result is “binds”.
